Measurements as given in patent publication US20120184713A1, “Compositions and Methods for Modulation of Bone Density and Biomineralization” (priority 2011, published 2012).
Numbering of substitutions follows the chain as printed. In names and notes the source's numbering stands.

B1: FAM20C: affinity purified V5-tagged mouse FAM20C, Golgi-localized protein kinase (protein)
chain: DFSSDPASNLTSHSLEKLPSAAEPVDHAPRGQEPRSPPPRDPAHRPLLRDPGPRPRVPPPGPSGDGSLLAKLFEHPLYQGAVPPLTEDDVLFNVNSDIRFNPKAAENPDWPHEGAEGAEFLPTGEAAVNLYPNWLKFHIGINRYELYSRHNPAIDALLRDLGSQKITSVAMKSGGTQLKLIMTFQNYGQALFKPMKQTREQETPPDFFYFSDYERHNAEIAAFHLDRILDFRRVPPVAGRMINMTKEIRDVTRDKKLWRTFFVSPANNICFYGECSYYCSTEHALCGRPDQIEGSLAAFLPDLSLAKRKTWRNPWRRSYHKRKKAEWEVDPDYCEEVKQTPPYDSGHRILDIMDMTVFDFLMGNMDRHHYETFEKFGNETFIIHLDNGRGFGKYSHDELSILAPLHQCCRIRRSTYLRLQLLAKEEHKLSLLMAESLQHDKVAPVLYQLHLEALDRRLRIVLQAVRDCVEKDGLSSVVEDDLATEHRASTER
modifications: left off: small tags and cut ends
B2: D453G: FAM20C:V5 with a mutation in a conserved Asp residue (protein, UniProt Q5MJS3 88-579, looked up, variant D453G)
Extracellular …: B1 chain with D366G
modifications: V5 tag
notes: FAM20C:V5 with a mutation in a conserved Asp residue
B3: DN473-474GG: FAM20C:V5 with a mutation in a motif predicted to bind metal ion cofactors (protein, UniProt Q5MJS3 88-579, looked up, variant D473G N474G)
Extracellular …: B1 chain with D386G, N387G
modifications: V5 tag
B4: G374E: recombinant mouse FAM20C:V5 carrying Raine syndrome patient mutation G374E (protein, UniProt Q5MJS3 88-579, looked up, variant G374E)
Extracellular …: B1 chain with G287E
modifications: V5 tag
B5: G374R: recombinant mouse FAM20C:V5 carrying Raine syndrome patient mutation G374R (protein, UniProt Q5MJS3 88-579, looked up, variant G374R)
Extracellular …: B1 chain with G287R
modifications: V5 tag
B6: 1241N: recombinant mouse FAM20C:V5 carrying Raine syndrome patient mutation 1241N (protein, UniProt Q5MJS3 88-579, looked up, variant I241N)
Extracellular …: B1 chain with I154N
modifications: V5 tag
notes: recombinant mouse FAM20C:V5 carrying Raine syndrome patient mutation 1241N
B7: G261R: recombinant mouse FAM20C:V5 carrying Raine syndrome patient mutation G261R (protein, UniProt Q5MJS3 88-579, looked up, variant G261R)
Extracellular …: B1 chain with G174R
modifications: V5 tag

Key:
FAM20C = biological target: T1, FAM20C (Mus musculus, UniProt Q5MJS3); test: FAM20C in vitro kinase assay with dephosphorylated alpha-Casein as substrate; format: biochemical; settings: Casein as model substrate; 5 minute assays
T1 construct: His (from vector pcDNA3.1/V5-His B) (C); made in house; host or cells: HEK293T
T1 sequence (Q5MJS3 88-579): B1 chain
Method: For FAM20C:V5 purification, pcDNA-FAM20C:V5 was transfected to HEK293T cells, and FAM20C:V5 was purified from conditioned media using anti-V5 agarose beads (Sigma). Condition media were incubated with anti-V5 affinity gel (Sigma) overnight at 4° C. Agarose beads were collected by centrifugation, and washed 5 times with TBS. Proteins were eluted using V5 peptides in TBS (Sigma, final concentration: 100 μg/ml). For purification of OPN:FLAG, BSP:FLAG, DMP1:FLAG, DSPP:FLAG and MEPE:FLAG, condition media were incubated with anti-FLAG M2 affinity gel (Sigma) overnight at 4° C. Agarose beads were collected by centrifugation, and washed 5 times with TBS. Purified quantification was performed on gels stained by SYPRO Ruby Protein Gel Stain (Invitrogen), using BSA as a standard.
FAM20C kinase assays were performed in 10 μl reactions, with 500 μM ATP, including 3 μCi (0.05 μM) of [gamma-^32P]ATP (6000 Ci/mmol, PerkinElmer), 50 mM Tris (pH 7.0), 10 mM MnCl2, 0.1% BSA, purified FAM20C:V5 (5 ng, […]), and dephosphorylated alpha-Casein (0.1 μg, Sigma). […] Radioactivity within the gels was detected using a Molecular Dynamics Phosphor Imager. For quantitation of gamma-^32P incorporation, bands were cut out of the gels using the Phosphor Imager pictures as a reference, and then counted by liquid scintillation using a Beckman Coulter LC6500. […]

OPN-ASARM peptide = test: Kinase assays of FAM20C mutant proteins; format: biochemical, human; settings: recombinant mouse FAM20C:V5 mutants; for the mutants OPN-ASARM peptide (1) as substrate, FIG. 8f
Method: Site-specific mutagenesis was performed by PCR essentially as described^26, by using primers […] and […] (SEQ ID NO: 25) (FAM20C^GG), […] (SEQ ID NO: 26) and […] (FAM20C^D453G) (SEQ ID NO: 27), […] (SEQ ID NO: 28) and […] (FAM20C^G374R) (SEQ ID NO: 29), […] and […] (FAM20C^G374E) (SEQ ID NO: 30), […] (SEQ ID NO: 31) and […] (FAM20C^E383R) (SEQ ID NO: 32), […] (SEQ ID NO: 33) and […] (FAM20C^R544W) (SEQ ID NO: 34), […] (SEQ ID NO: 35) and […] (FAM20C^1241N)(SEQ ID NO: 36), […] (SEQ ID NO: 37) and […] (FAM20C^G261R) (SEQ ID NO: 38), […] (SEQ ID NO: 39) and […] (FAM20C^D446N) (SEQ ID NO:40). All mutations were confirmed by DNA sequencing.
FAM20C kinase assay with peptides substrates were performed in 10 μl reactions, with 500 μM ATP, including 3 μCi (0.05 μM) of [gamma-^32P]ATP (6000 Ci/mmol, PerkinElmer), 50 mM Tris (pH 7.0), 10 mM MnCl2, 0.1% BSA, purified FAM20C:V5 and peptides. Casein Kinase I (500 units, NEB) was used as a control kinase. mutant versions (5 ng, […]), and peptides (2.5 μg, 1 nmol as a standard condition. 250 ng, […] in FAM20C mutants). Reactions were stopped by adding 1.5 μl 0.1N—HCl, and one half of the reaction volume was pipetted on to P81 phospho-cellulose filter paper^27. The filter papers were washed with 0.5% phosphoric acid and subjected to liquid scintillation counting.

Molecule | V. (FAM20C) | turnover number (kcat) (FAM20C) | kinase activity of FAM20C mutant isoform (OPN-ASARM peptide)
B1 | 0.7 μM ATP/min/mg FAM20C | 52 per minute | 
B2 |  |  | abolished catalytic activity
B3 |  |  | abolished catalytic activity
B4 |  |  | no detectable kinase activity
B5 |  |  | no detectable kinase activity
B6 |  |  | no detectable kinase activity
B7 |  |  | diminished kinase activity
